Reference: publication PMC2917274, “Structure of Staphylococcus aureus adenylosuccinate lyase (PurB) and assessment of its potential as a target for structure-based inhibitor discovery” (Acta Crystallographica Section D: Biological Crystallography, 2010)

T1: SaPurB (Staphylococcus aureus, UniProt Q7A0G9)
T1 construct: gene purB; full length (domains described over residues 1-431); N-terminal His tag removed by TEV protease (modified pET15b); expressed in E. coli BL21(DE3) pLysS; dimer in gel filtration, homotetramer in crystal, each active site from three subunits
T1 sequence (Q7A0G9 1-431): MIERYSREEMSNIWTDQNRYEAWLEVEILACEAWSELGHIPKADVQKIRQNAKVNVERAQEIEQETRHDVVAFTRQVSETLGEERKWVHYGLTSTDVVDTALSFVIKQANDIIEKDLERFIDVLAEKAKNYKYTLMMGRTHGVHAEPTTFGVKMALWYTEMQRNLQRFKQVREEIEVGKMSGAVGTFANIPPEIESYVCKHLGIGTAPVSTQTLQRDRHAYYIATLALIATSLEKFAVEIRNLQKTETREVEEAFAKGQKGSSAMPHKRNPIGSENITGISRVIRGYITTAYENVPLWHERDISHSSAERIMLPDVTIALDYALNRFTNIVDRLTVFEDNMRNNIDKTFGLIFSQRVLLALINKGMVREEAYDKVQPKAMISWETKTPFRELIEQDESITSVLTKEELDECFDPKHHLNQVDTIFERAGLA


Columns and labels:
[1] = molecular target: T1, SaPurB; assay: X-ray crystal structure, […] Å; type: binding; settings: co-crystallized with 25 mM AMP, pH 6.2, 293 K; active site; oxalate tentatively modelled nearby
[2] = molecular target: the molecule itself; assay: SEC; Superdex 200 26/60, 50 mM Tris-HCl, 250 mM NaCl pH 7.5, column calibrated with molecular-weight standards; final stage of purification
[3] = molecular target: the molecule itself; assay: crystal structure; 2.5 A, space group I222, one chain per asymmetric unit, tetramer built by crystallographic twofold axes; with AMP and oxalate; crystals at 293 K from 45% PEG 200, 0.2 M NaCl, 0.1 M sodium phosphate pH 6.2

Molecule	X-ray crystal structure, 2.5 Å [1]	stoichiometry N [2]	stoichiometry N [3]
Nc1ncnc2c1ncn2[C@@H]1O[C@H](COP(=O)(O)O)[C@@H](O)[C@H]1O [AMP]	The structure of AMP in the active site of SaPurB	–	–
Staphylococcus aureus adenylosuccinate lyase (PurB) (enzyme, UniProt Q2FFI7 1-431, looked up, domains I-III span residues 1-431; theoretical subunit mass 49.6 kDa; Vector pET15b changed to carry a TEV site in place of the thrombin site; Dimer by gel filtration, tetramer in the crystal; also called SaPurB) MIERYSREEMSNIWTDQNRYEAWLEVEILACEAWSELGHIPKADVQKIRQNAKVNVERAQEIEQETRHDVVAFTRQVSETLGEERKWVHYGLTSTDVVDTALSFVIKQANDIIEKDLERFIDVLAEKAKNYKYTLMMGRTHGVHAEPTTFGVKMALWYTEMQRNLQRFKQVREEIEVGKMSGAVGTFANIPPEIESYVCKHLGIGTAPVSTQTLQRDRHAYYIATLALIATSLEKFAVEIRNLQKTETREVEEAFAKGQKGSSAMPHKRNPIGSENITGISRVIRGYITTAYENVPLWHERDISHSSAERIMLPDVTIALDYALNRFTNIVDRLTVFEDNMRNNIDKTFGLIFSQRVLLALINKGMVREEAYDKVQPKAMISWETKTPFRELIEQDESITSVLTKEELDECFDPKHHLNQVDTIFERAGLA	–	2	4
